Test results published in the supplement of paper PMC10065799, “High-throughput profiling of sequence recognition by tyrosine kinases and SH2 domains using bacterial peptide display” (eLife, 2023).

These sequences were tested against Hck (UniProt P08631) (assay: phosphorylation enrichment, bacterial display (enrichment ratio); higher = better substrate or ligand; peptides without Tyr show the background).
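For SH2 binding enrichment of the phosphorylated peptide, bacterial display in this document: peptide library displayed on the E. coli surface as eCPX fusions, selected cells deep-sequenced, score is each peptide's frequency after selection divided by its frequency in the input.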
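For phosphorylation enrichment, bacterial display in this document: 11-residue human phosphosite peptides and single-mutation variants displayed on the E. coli surface, counted by deep sequencing, each peptide's frequency after selection divided by its frequency in the unselected input library; frequency after pTyr selection over input frequency; kinase dosed for 20-30% of maximal phosphorylation in three min.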

Chain of Hck (P08631 whole entry, looked up, the tested form may be a part): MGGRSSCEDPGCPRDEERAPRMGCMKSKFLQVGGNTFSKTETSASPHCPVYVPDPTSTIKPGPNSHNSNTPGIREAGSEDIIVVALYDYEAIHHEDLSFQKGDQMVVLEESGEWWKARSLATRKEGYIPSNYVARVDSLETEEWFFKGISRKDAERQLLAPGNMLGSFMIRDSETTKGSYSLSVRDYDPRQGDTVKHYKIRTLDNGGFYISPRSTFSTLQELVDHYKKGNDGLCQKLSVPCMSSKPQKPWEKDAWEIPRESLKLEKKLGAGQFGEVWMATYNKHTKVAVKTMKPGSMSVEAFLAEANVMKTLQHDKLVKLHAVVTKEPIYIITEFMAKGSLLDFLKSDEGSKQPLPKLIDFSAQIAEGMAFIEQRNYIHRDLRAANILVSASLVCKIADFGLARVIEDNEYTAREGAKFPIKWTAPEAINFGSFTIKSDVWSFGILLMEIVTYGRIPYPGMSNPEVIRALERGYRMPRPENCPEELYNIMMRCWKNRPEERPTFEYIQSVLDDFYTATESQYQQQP

Going from HFPFQYHRQLF [F12_Y53_YF] to TFGNLYGSRKQ [YIPF7_Y59_A54T_YF], the phosphorylation enrichment rises from 0.52 to 3.44.

Going from EDGRLYAVKRS [PKMYT1_Y136] to GNEEAYGSSHI [FAM171B_Y522_R524S], the phosphorylation enrichment falls from 0.612 to 0.489.

Compared with EFGEVYKGMLK [EPHA2_Y628], RILENYGADID [DNAH5_Y596_L591R] is higher in phosphorylation enrichment: 0.454 for the first, 0.494 for the second.

First: IVKAYYVHARA [AIPL1_Y268_R270H]
Second: DGNTRYSTFSE [TKTL1_Y318_D315N]
The phosphorylation enrichment of the first is higher: 0.595 for the first, 0.418 for the second.

Compared with FTRNFYVQAVL [CYBA_Y88_R90Q_YF], IPGRFYETGSI [PAX2_Y73_L69P_YF] is higher in phosphorylation enrichment: 0.483 for the first, 0.517 for the second.

Going from QGLMPYGQPRP [SRRT_Y798] to NNFGNYNNQSS [HNRNPA1_Y318_D314N], the phosphorylation enrichment falls from 0.563 to 0.354.

Going from IVEELYAIPPD [PEAK1_Y797_S792I] to QGFDTYFGFLL [ARSB_Y165_R160Q_YF], the phosphorylation enrichment rises from 4.27 to 8.45.

Going from ESMLRYEVYGG [STOX1_Y607] to LTEHGYSFTTT [ACTB_Y198_R196H], the phosphorylation enrichment falls from 0.712 to 0.342.

The sequences below were run against Jak2 (UniProt O60674) in the same assay as above.
Chain of Jak2 (O60674 whole entry, looked up): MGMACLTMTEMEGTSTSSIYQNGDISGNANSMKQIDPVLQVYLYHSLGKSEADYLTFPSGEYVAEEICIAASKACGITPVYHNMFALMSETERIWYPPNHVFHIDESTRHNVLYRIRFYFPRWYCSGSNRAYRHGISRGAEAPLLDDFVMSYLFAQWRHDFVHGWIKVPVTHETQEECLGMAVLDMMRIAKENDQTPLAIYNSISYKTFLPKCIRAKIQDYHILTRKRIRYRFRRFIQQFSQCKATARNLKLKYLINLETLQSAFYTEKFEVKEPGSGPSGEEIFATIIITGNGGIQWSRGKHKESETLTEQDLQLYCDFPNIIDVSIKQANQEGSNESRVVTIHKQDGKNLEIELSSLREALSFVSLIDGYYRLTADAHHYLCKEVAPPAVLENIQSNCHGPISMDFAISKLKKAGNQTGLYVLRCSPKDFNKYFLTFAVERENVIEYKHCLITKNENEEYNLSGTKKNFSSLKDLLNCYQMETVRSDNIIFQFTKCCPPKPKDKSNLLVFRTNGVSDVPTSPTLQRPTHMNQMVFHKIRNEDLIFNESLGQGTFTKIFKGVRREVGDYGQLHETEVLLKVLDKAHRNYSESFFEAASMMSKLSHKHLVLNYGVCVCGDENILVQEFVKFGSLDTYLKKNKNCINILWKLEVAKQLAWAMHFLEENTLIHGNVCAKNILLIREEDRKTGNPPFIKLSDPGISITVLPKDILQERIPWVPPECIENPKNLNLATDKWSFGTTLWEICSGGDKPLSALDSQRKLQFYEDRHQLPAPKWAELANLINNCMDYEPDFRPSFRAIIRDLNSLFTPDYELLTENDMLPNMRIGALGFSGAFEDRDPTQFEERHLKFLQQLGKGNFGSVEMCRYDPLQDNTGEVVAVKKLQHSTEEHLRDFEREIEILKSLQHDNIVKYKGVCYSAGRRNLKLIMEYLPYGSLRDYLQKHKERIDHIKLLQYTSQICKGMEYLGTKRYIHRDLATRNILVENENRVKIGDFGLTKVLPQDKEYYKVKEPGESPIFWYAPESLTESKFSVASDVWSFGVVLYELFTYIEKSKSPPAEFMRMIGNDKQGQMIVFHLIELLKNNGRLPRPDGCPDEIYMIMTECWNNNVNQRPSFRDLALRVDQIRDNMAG

Compared with HFPFQYHRQLF [F12_Y53_YF], TFGNLYGSRKQ [YIPF7_Y59_A54T_YF] is lower in phosphorylation enrichment: 0.669 for the first, 0.507 for the second.

Going from EDGRLYAVKRS [PKMYT1_Y136] to GNEEAYGSSHI [FAM171B_Y522_R524S], the phosphorylation enrichment falls from 0.728 to 0.718.

Going from EFGEVYKGMLK [EPHA2_Y628] to RILENYGADID [DNAH5_Y596_L591R], the phosphorylation enrichment rises from 0.394 to 1.14.

Going from IVKAYYVHARA [AIPL1_Y268_R270H] to DGNTRYSTFSE [TKTL1_Y318_D315N], the phosphorylation enrichment rises from 0.818 to 1.01.

Compared with FTRNFYVQAVL [CYBA_Y88_R90Q_YF], IPGRFYETGSI [PAX2_Y73_L69P_YF] is lower in phosphorylation enrichment: 1.15 for the first, 0.662 for the second.

Going from QGLMPYGQPRP [SRRT_Y798] to NNFGNYNNQSS [HNRNPA1_Y318_D314N], the phosphorylation enrichment falls from 0.601 to 0.432.

First: IVEELYAIPPD [PEAK1_Y797_S792I]
Second: QGFDTYFGFLL [ARSB_Y165_R160Q_YF]
The phosphorylation enrichment of the first is lower: 1.27 for the first, 4.81 for the second.

Going from ESMLRYEVYGG [STOX1_Y607] to LTEHGYSFTTT [ACTB_Y198_R196H], the phosphorylation enrichment rises from 1.3 to 1.61.

The sequences below were run against MERTK (UniProt Q12866) in the same assay as above.
Chain of MERTK (Q12866 whole entry, looked up): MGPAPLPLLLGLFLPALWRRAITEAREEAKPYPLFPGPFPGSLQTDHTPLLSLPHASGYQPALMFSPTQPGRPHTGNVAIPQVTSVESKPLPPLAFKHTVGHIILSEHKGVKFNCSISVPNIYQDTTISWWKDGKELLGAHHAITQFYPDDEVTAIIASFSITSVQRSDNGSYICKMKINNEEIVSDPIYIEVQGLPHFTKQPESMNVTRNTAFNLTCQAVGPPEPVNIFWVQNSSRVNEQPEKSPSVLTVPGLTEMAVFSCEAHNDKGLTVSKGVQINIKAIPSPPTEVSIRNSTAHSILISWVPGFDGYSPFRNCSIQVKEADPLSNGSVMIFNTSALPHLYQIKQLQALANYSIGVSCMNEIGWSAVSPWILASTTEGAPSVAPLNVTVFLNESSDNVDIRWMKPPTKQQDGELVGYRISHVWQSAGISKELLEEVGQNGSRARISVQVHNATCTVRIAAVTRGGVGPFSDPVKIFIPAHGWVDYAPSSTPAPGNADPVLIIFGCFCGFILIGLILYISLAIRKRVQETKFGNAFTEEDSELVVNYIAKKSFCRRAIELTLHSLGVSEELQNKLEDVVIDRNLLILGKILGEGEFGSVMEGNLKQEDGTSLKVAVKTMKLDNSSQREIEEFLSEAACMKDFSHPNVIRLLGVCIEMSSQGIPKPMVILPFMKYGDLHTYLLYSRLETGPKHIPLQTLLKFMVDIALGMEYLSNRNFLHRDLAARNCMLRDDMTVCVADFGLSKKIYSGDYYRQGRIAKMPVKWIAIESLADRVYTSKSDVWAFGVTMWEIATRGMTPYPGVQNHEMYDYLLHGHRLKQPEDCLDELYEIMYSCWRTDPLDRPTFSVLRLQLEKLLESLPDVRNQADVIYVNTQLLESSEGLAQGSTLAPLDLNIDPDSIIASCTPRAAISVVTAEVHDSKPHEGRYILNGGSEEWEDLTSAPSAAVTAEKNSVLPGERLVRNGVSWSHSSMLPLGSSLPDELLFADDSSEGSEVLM

Going from HFPFQYHRQLF [F12_Y53_YF] to TFGNLYGSRKQ [YIPF7_Y59_A54T_YF], the phosphorylation enrichment rises from 0.507 to 0.641.

First: EDGRLYAVKRS [PKMYT1_Y136]
Second: GNEEAYGSSHI [FAM171B_Y522_R524S]
The phosphorylation enrichment of the first is lower: 0.433 for the first, 0.526 for the second.

Compared with EFGEVYKGMLK [EPHA2_Y628], RILENYGADID [DNAH5_Y596_L591R] is higher in phosphorylation enrichment: 0.367 for the first, 0.51 for the second.

First: IVKAYYVHARA [AIPL1_Y268_R270H]
Second: DGNTRYSTFSE [TKTL1_Y318_D315N]
The phosphorylation enrichment of the first is higher: 0.572 for the first, 0.339 for the second.

Going from FTRNFYVQAVL [CYBA_Y88_R90Q_YF] to IPGRFYETGSI [PAX2_Y73_L69P_YF], the phosphorylation enrichment falls from 0.494 to 0.415.

Compared with QGLMPYGQPRP [SRRT_Y798], NNFGNYNNQSS [HNRNPA1_Y318_D314N] is lower in phosphorylation enrichment: 0.596 for the first, 0.326 for the second.

Going from IVEELYAIPPD [PEAK1_Y797_S792I] to QGFDTYFGFLL [ARSB_Y165_R160Q_YF], the phosphorylation enrichment falls from 8.66 to 6.29.

First: ESMLRYEVYGG [STOX1_Y607]
Second: LTEHGYSFTTT [ACTB_Y198_R196H]
The phosphorylation enrichment of the first is lower: 0.506 for the first, 0.938 for the second.

The sequences below were run on c-Abl (mouse) in the same assay as above.

First: HFPFQYHRQLF [F12_Y53_YF]
Second: TFGNLYGSRKQ [YIPF7_Y59_A54T_YF]
The phosphorylation enrichment of the first is higher: 1.44 for the first, 0.585 for the second.

Going from EDGRLYAVKRS [PKMYT1_Y136] to GNEEAYGSSHI [FAM171B_Y522_R524S], the phosphorylation enrichment rises from 0.692 to 0.866.

Going from EFGEVYKGMLK [EPHA2_Y628] to RILENYGADID [DNAH5_Y596_L591R], the phosphorylation enrichment rises from 0.377 to 0.951.

First: IVKAYYVHARA [AIPL1_Y268_R270H]
Second: DGNTRYSTFSE [TKTL1_Y318_D315N]
The phosphorylation enrichment of the first is lower: 0.663 for the first, 0.746 for the second.

Compared with FTRNFYVQAVL [CYBA_Y88_R90Q_YF], IPGRFYETGSI [PAX2_Y73_L69P_YF] is lower in phosphorylation enrichment: 0.742 for the first, 0.552 for the second.

Going from QGLMPYGQPRP [SRRT_Y798] to NNFGNYNNQSS [HNRNPA1_Y318_D314N], the phosphorylation enrichment falls from 0.725 to 0.626.

Compared with IVEELYAIPPD [PEAK1_Y797_S792I], QGFDTYFGFLL [ARSB_Y165_R160Q_YF] is lower in phosphorylation enrichment: 10 for the first, 1.33 for the second.

First: ESMLRYEVYGG [STOX1_Y607]
Second: LTEHGYSFTTT [ACTB_Y198_R196H]
The phosphorylation enrichment of the first is lower: 0.744 for the first, 1.58 for the second.

The sequences below were run on c-Src in the same assay as above.

Compared with HFPFQYHRQLF [F12_Y53_YF], TFGNLYGSRKQ [YIPF7_Y59_A54T_YF] is higher in phosphorylation enrichment: 0.546 for the first, 1.81 for the second.

Going from EDGRLYAVKRS [PKMYT1_Y136] to GNEEAYGSSHI [FAM171B_Y522_R524S], the phosphorylation enrichment rises from 0.485 to 0.549.

First: EFGEVYKGMLK [EPHA2_Y628]
Second: RILENYGADID [DNAH5_Y596_L591R]
The phosphorylation enrichment of the first is lower: 0.481 for the first, 0.56 for the second.

Compared with IVKAYYVHARA [AIPL1_Y268_R270H], DGNTRYSTFSE [TKTL1_Y318_D315N] is higher in phosphorylation enrichment: 0.432 for the first, 0.569 for the second.

First: FTRNFYVQAVL [CYBA_Y88_R90Q_YF]
Second: IPGRFYETGSI [PAX2_Y73_L69P_YF]
The phosphorylation enrichment of the first is lower: 0.474 for the first, 0.549 for the second.

Compared with QGLMPYGQPRP [SRRT_Y798], NNFGNYNNQSS [HNRNPA1_Y318_D314N] is lower in phosphorylation enrichment: 0.883 for the first, 0.32 for the second.

Compared with IVEELYAIPPD [PEAK1_Y797_S792I], QGFDTYFGFLL [ARSB_Y165_R160Q_YF] is higher in phosphorylation enrichment: 3.23 for the first, 7.09 for the second.

First: ESMLRYEVYGG [STOX1_Y607]
Second: LTEHGYSFTTT [ACTB_Y198_R196H]
The phosphorylation enrichment of the first is lower: 0.905 for the first, 1.09 for the second.

The sequences below were run against Grb2 SH2 (UniProt P62993) (assay: SH2 binding enrichment of the phosphorylated peptide, bacterial display (enrichment ratio); higher = better substrate or ligand; peptides without Tyr show the background).
Chain of Grb2 SH2 (P62993 whole entry, looked up): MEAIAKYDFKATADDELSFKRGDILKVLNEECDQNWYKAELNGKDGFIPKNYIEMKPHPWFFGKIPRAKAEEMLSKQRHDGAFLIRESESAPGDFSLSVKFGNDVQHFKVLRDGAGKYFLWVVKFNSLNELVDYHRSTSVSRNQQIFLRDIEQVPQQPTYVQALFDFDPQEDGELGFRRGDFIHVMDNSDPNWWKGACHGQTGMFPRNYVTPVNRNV

First: HFPFQYHRQLF [F12_Y53_YF]
Second: TFGNLYGSRKQ [YIPF7_Y59_A54T_YF]
The SH2 binding enrichment of the first is higher: 1.67 for the first, 0.851 for the second.

First: EDGRLYAVKRS [PKMYT1_Y136]
Second: GNEEAYGSSHI [FAM171B_Y522_R524S]
The SH2 binding enrichment of the first is higher: 0.891 for the first, 0.663 for the second.

Compared with EFGEVYKGMLK [EPHA2_Y628], RILENYGADID [DNAH5_Y596_L591R] is lower in SH2 binding enrichment: 1.11 for the first, 0.525 for the second.

Going from IVKAYYVHARA [AIPL1_Y268_R270H] to DGNTRYSTFSE [TKTL1_Y318_D315N], the SH2 binding enrichment falls from 1.25 to 0.655.

First: FTRNFYVQAVL [CYBA_Y88_R90Q_YF]
Second: IPGRFYETGSI [PAX2_Y73_L69P_YF]
The SH2 binding enrichment of the first is lower: 0.837 for the first, 0.841 for the second.

Going from QGLMPYGQPRP [SRRT_Y798] to NNFGNYNNQSS [HNRNPA1_Y318_D314N], the SH2 binding enrichment falls from 0.955 to 0.805.

First: IVEELYAIPPD [PEAK1_Y797_S792I]
Second: QGFDTYFGFLL [ARSB_Y165_R160Q_YF]
The SH2 binding enrichment of the first is higher: 0.88 for the first, 0.717 for the second.

Compared with ESMLRYEVYGG [STOX1_Y607], LTEHGYSFTTT [ACTB_Y198_R196H] is lower in SH2 binding enrichment: 0.819 for the first, 0.817 for the second.

Each sequence was assayed against SHP2-C SH2 in the same assay as above.

Compared with HFPFQYHRQLF [F12_Y53_YF], TFGNLYGSRKQ [YIPF7_Y59_A54T_YF] is lower in SH2 binding enrichment: 1.14 for the first, 0.512 for the second.

First: EDGRLYAVKRS [PKMYT1_Y136]
Second: GNEEAYGSSHI [FAM171B_Y522_R524S]
The SH2 binding enrichment of the first is higher: 0.833 for the first, 0.751 for the second.

Compared with EFGEVYKGMLK [EPHA2_Y628], RILENYGADID [DNAH5_Y596_L591R] is lower in SH2 binding enrichment: 0.838 for the first, 0.474 for the second.

Compared with IVKAYYVHARA [AIPL1_Y268_R270H], DGNTRYSTFSE [TKTL1_Y318_D315N] is lower in SH2 binding enrichment: 1.95 for the first, 1.07 for the second.

Going from FTRNFYVQAVL [CYBA_Y88_R90Q_YF] to IPGRFYETGSI [PAX2_Y73_L69P_YF], the SH2 binding enrichment rises from 0.78 to 0.803.

First: QGLMPYGQPRP [SRRT_Y798]
Second: NNFGNYNNQSS [HNRNPA1_Y318_D314N]
The SH2 binding enrichment of the first is higher: 0.653 for the first, 0.607 for the second.

Compared with IVEELYAIPPD [PEAK1_Y797_S792I], QGFDTYFGFLL [ARSB_Y165_R160Q_YF] is higher in SH2 binding enrichment: 0.68 for the first, 0.724 for the second.

First: ESMLRYEVYGG [STOX1_Y607]
Second: LTEHGYSFTTT [ACTB_Y198_R196H]
The SH2 binding enrichment of the first is lower: 0.554 for the first, 0.883 for the second.

Each sequence was assayed against c-Src SH2 in the same assay as above.

Compared with HFPFQYHRQLF [F12_Y53_YF], TFGNLYGSRKQ [YIPF7_Y59_A54T_YF] is lower in SH2 binding enrichment: 1.14 for the first, 0.348 for the second.

First: EDGRLYAVKRS [PKMYT1_Y136]
Second: GNEEAYGSSHI [FAM171B_Y522_R524S]
The SH2 binding enrichment of the first is higher: 0.525 for the first, 0.435 for the second.

Compared with EFGEVYKGMLK [EPHA2_Y628], RILENYGADID [DNAH5_Y596_L591R] is higher in SH2 binding enrichment: 0.553 for the first, 0.802 for the second.

Compared with IVKAYYVHARA [AIPL1_Y268_R270H], DGNTRYSTFSE [TKTL1_Y318_D315N] is higher in SH2 binding enrichment: 0.823 for the first, 1.02 for the second.

First: FTRNFYVQAVL [CYBA_Y88_R90Q_YF]
Second: IPGRFYETGSI [PAX2_Y73_L69P_YF]
The SH2 binding enrichment of the first is lower: 0.421 for the first, 1.11 for the second.

Compared with QGLMPYGQPRP [SRRT_Y798], NNFGNYNNQSS [HNRNPA1_Y318_D314N] is lower in SH2 binding enrichment: 0.357 for the first, 0.337 for the second.

Going from IVEELYAIPPD [PEAK1_Y797_S792I] to QGFDTYFGFLL [ARSB_Y165_R160Q_YF], the SH2 binding enrichment falls from 0.564 to 0.345.

First: ESMLRYEVYGG [STOX1_Y607]
Second: LTEHGYSFTTT [ACTB_Y198_R196H]
The SH2 binding enrichment of the first is lower: 0.929 for the first, 1.88 for the second.
